Measured values: paper doi:10.1101/2021.03.23.436578 (bioRxiv, 2021)

Biological target: the molecule itself
Experiment: mass photometry

B1: Cavin1 (1-190) (domain or fragment, UniProt O54724 1-190, looked up)
chain: MEDVTLHIVERPYSGFPDASSEGPEPTQGEARATEEPSGTGSDELIKSDQVNGVLVLSLLDKIIGAVDQIQLTQAQLEERQAEMEGAVQSIQGELSKLGKAHATTSNTVSKLLEKVRKVSVNVKTVRGSLERQAGQIKKLEVNEAELLRRRNFKVMIYQDEVKLPAKLSVSKSLKESEALPEKEGDELGE
With B1 the “stoichiometry N” value was 3.
